The conditions of data set [1]: palmitic acid; cited from earlier work.
For data set [2] the following is noted: palmitate; cited from earlier work.
A short description of data set [3]: Ethane hydroxylation to ethanol (rate, total turnover). It is filed as biochemical. The protocol: Ethane hydroxylation by 53-5H was measured after 12-hour incubations of the enzyme in ethane-saturated buffer containing an ethanol-free NADPH regeneration system (commercial NADPH contains 2-3% ethanol). While the reaction is uncoupled to NADPH oxidation in the presence of ethane (660 min-1, see Table 2), 53-5H nevertheless consistently produces at least 50 equivalents of ethanol independent of the starting concentration of enzyme (see FIGS. 2 and 3). Over oxidation was tested by supplying ethanol as a substrate and monitoring ethanol depletion by gas chromatography and the production of acetaldehyde and acetic acid by ^13C NMR using ^13C-labeled ethanol. No (i.e. less than 10%, the detection limit of these experiments) over oxidation products were detected in these experiments (see FIG. 4). In general, the hydrophobic active sites in P450s assist in the release of singly-hydroxylated products.
Reactions on ethane were carried out similarly to those described for propane (Peters et al., J. Am. Chem. Soc. 125:13442 (2003); incorporated by reference herein). Because commercially-available NADPH contains 2-3% ethanol, an NADPH regeneration system was used. Thereby, the background ethanol concentration was reduced to approximately 1 μM. Ethane hydroxylation reactions were performed in 20 mL glass vials. A 5.0 mL reaction mixture contained 100, 200 or 500 nM purified protein in 0.1 M potassium phosphate buffer (pH 8.0) saturated with ethane and dioxygen. […] The vial was immediately topped with a septum, pressurized with 20 psi of ethane and stirred at 25° C. For determination of total turnover, the reaction was allowed to proceed for four hours. For rate determination the reaction was stopped at 0, 15 and 30 min. 50 μL of 5 mM 1-butanol was added to the reaction mixture as an internal standard. Ethanol and 1-butanol were subsequently derivatized to their corresponding alkyl nitrites. Control reactions were performed by repeating these steps without substrate and with inactivated protein, to correct for background levels of ethanol. […] Reactions with ethane and corresponding control reactions without ethane or with inactivated protein were carried out in triplicate. […]
Rates of ethanol formation were measured over 30 min using gas chromatography (GC) coupled to an electron capture detector (ECD) and are reported as nmol ethanol/min/nmol enzyme. […] Total turnover number (ttn) was measured using GC after completion of the reaction and is reported as nmol product/nmol protein. […] Initial rates of propanol and octanol formation were measured over 1 min by GC and are reported as nmol product/min/nmol protein. […] The “ee” of 2-octanol (main product) was measured by GC; the favored enantiomer is listed in parenthesis. […]

A short description of data set [4]: Absorption spectra, spin shift upon incubation with substrate. It is filed as binding. The settings on record: 3 uM purified P450; incubation with ethane or octane. The protocol: The absorption spectra for 53-5H and 35-E11 were taken using a 3 uM solution of purified P450 in a quartz cuvette. Upon incubation with ethane, no shift in equilibrium from low- (Amax at 418 nm) to high-spin (Amax at 390 nm) configuration of the ferric P450 was observed.

The nature of data set [5]: NADPH oxidation rates and coupling for propane hydroxylation (Example 4). It is filed as biochemical. Particulars: propanol formation rate/NADPH oxidation rate. How it is done: Determination of NADPH oxidation rates. Initial rates of NADPH oxidation were measured using propane-saturated 100 mM KPi pH 8.0 buffer, purified enzyme at 50-200 nM, and a saturating concentration of NADPH (200 μM). The absorbance decrease at 340 nm was monitored at 25° C. in a BioSpec-1601 UV/VIS spectrophotometer (Shimadzu, Columbia, MD) for 1 min. Rates were calculated over the first 20 seconds using NADPH extinction coefficient ε340=6210 M^−1 cm^−1. Rates were determined in triplicate. Coupling values were calculated from the ratio of propanol formation rate to NADPH oxidation rate in the presence of propane.

B1: Wild-type BM-3: wild-type cytochrome P450 BM-3 from Bacillus megaterium, SEQ ID NO:1 (protein, listed as Bacillus megaterium)
chain: TIKEMPQPKTFGELKNLPLLNTDKPVQALMKIADELGEIFKFEAPGRVTRYLSSQRLIKEACDESRFDKNLSQALKFVRDFAGDGLFTSWTHEKNWKKAHNILLPSFSQQAMKGYHAMMVDIAVQLVQKWERLNADEHIEVPEDMTRLTLDTIGLCGFNYRFNSFYRDQPHPFITSMVRALDEAMNKLQRANPDDPAYDENKRQFQEDIKVMNDLVDKIIADRKASGEQSDDLLTHMLNGKDPETGEPLDDENIRYQIITFLIAGHETTSGLLSFALYFLVKNPHVLQKAAEEAARVLVDPVPSYKQVKQLKYVGMVLNEALRLWPTAPAFSLYAKEDTVLGGEYPLEKGDELMVLIPQLHRDKTIWGDDVEEFRPERFENPSAIPQHAFKPFGNGQRACIGQQFALHEATLVLGMMLKHFDFEDHTNYELDIKETLTLKPEGFVVKAKSKKIPLGGIPSPSTEQSAKKVRKKAENAHNTPLLVLYGSNMGTAEGTARDLADIAMSKGFAPQVATLDSHAGNLPREGAVLIVTASYNGHPPDNAKQFVDWLDQASADEVKGVRYSVFGCGDKNWATTYQKVPAFIDETLAAKGAENIADRGEADASDDFEGTYEEWREHMWSDVAAYFNLDIENSEDNKSTLSLQFVDSAADMPLAKMHGAFSTNVVASKELQQPGSARSTRHLEIELPKEASYQEGDHLGVIPRNYEGIVNRVTARFGLDASQQIRLEAEEEKLAHLPLAKTVSVEELLQYVELQDPVTRTQLRAMAAKTVCPPHKVELEALLEKQAYKEQVLAKRLTMLELLEKYPACEMKFSEFIALLPSIRPRYYSISSSPRVDEKQASITVSVVSGEAWSGYGEYKGIASNYLAELQEGDTITCFISTPQSEFTLPKDPETPLIMVGPGTGVAPFRGFVQARKQLKEQGQSLGEAHLYFGCRSPHEDYLYQEELENAQSEGIITLHTAFSRMPNQPKTYVQHVMEQDGKKLIELLDQGAHFYICGDGSQMAPAVEATLMKSYADVHQVSEADARLWLQQLEEKGRYAKDVWAG
In the case of B1, the “hydroxylation at the ω-2 position” value in data set [1] is 48%. Moreover, in data set [2], the Coupling efficiency was 93% and the catalytic efficiency was 6e+07 M⁻¹ s⁻¹.

B2: 35-E11: P450 BM-3 variant, SEQ ID NO:7: 53-5H substitutions plus E464G and I710T (protein)
chain: TIKEMPQPKTFGELKNLPLLNTDKPVQALMKIADELGEIFKFEAPGCVTRYLSSQRLIKEACDESRFDKNLSQALKFFRDFSGDGLFTSWTHEINWKKAHNILLPSFSQQAMKGYHAMMVDIAVQLVQKWERLNADEHIEVSEDMTRLTLDTIGLCGFNYRFNSFYRDQPHPFIISMVRALDEVMNKLQRANPDDPAYDENKRQCQEDIKVMNDLVDKIIADRKARGEQSDDLLTQMLNGKDPETGEPLDDGNISYQIITFLIAGHETTSGLLSFALYFLVKNPHVLQKVVEEAARVLVDPVPSYKQVKQLKYVGMVLNEALRLWPTFPAFSLYAKEDTVLGGEYPLEKGDEVMVLIPQLHRDKTIWGDDVEEFRPERFENPSAIPQHAFKPFGNGQRACIGQQFALHEATLVLGMMLKHFDFEDHTNYELDIKETLTLKPEGFVVKAKSKKIPLGGIPSPSTGQSAKKVRKKAENAHNTPLLVLYGSNMGTAEGTARDLADIAMSKGFAPQVATLDSHAGNLPREGAVLIVTASYNGHPPDNAKQFVDWLDQASADEVKGVRYSVFGCGDKNWATTYQKVPAFIDETLAAKGAENIADRGEADASDDFEGTYEEWREHMWSDVAAYFNLDIENSEDNKSTLSLQFVDSAADMPLAKMHGAFSTNVVASKELQQPGSARSTRHLEIELPKEASYQEGDHLGVIPRNYEGTVNRVTARFGLDASQQIRLEAEEEKLAHLPLAKTVSVEELLQYVELQDPVTRTQLRAMAAKTVCPPHKVELEALLEKQAYKEQVLAKRLTMLELLEKYPACEMKFSEFIALLPSIRPRYYSISSSPRVDEKQASITVSVVSGEAWSGYGEYKGIASNYLAELQEGDTITCFISTPQSEFTLPKDPETPLIMVGPGTGVAPFRGFVQARKQLKEQGQSLGEAHLYFGCRSPHEDYLYQEELENAQSEGIITLHTAFSRMPNQPKTYVQHVMEQDGKKLIELLDQGAHFYICGDGSQMAPAVEATLMKSYADVHQVSEADARLWLQQLEEKGRYAKDVWAG
modifications: mutant P450 35-E11 protein sequence
Regarding B2, the ethanol produced entry in data set [3] (200 nM of mutant, typical reaction with ethane) is reported as “over 50 μM”. Further, in data set [3] (after completion of the reaction), the Ethane ttn was found to be 250 nmol product/nmol protein. The “increase in total turnover of ethane to ethanol” value in data set [3] (compared to 53-5H) is “five-fold”. The “Ethane Rate” value in data set [3] (ethanol formation over 30 min, GC-ECD, dash = no activity) is 0.4 nmol ethanol/min/nmol enzyme. Further, the “shift from low- to high-spin ferric P450” value in data set [4] is given as “behaved identically”.

B3: P450PMO: P450 BM-3 variant, SEQ ID NO:125; 7-7 plus G443A and D698G; propane monooxygenase (protein)
chain: TIKEMPQPKTFGELKNLPLLNTDKPVQALMKIADELGEIFKFEAPGCVTRYISSQRLIKEACDESRFDKNLSQELKFFRDFGGDGLFTSWTHEINWKKAHNILLPSFSQQAMKGYHAMMVDIAVQLVQKWERLNADEHIEVSEDMTRLTLDTIGLCGFNYRFNSFYRDQPHPFIISMVRALDEVMNKPQRANPDDPAYDENKRQCQEDIKVMNDLVDKIIADRKARGEQSDDLLTQMLNGKDPETGEPLDDGNISYQIITFLIAGHETTSGLLSFALYFLVKNPHVLQKVVEEAARVLVDPVPSYKQVKQLKYVGMVLNEALRLWPTFPAFSLYAKEDTVLGGEYPLEKGDEVMVLIPQLHRDKTVWGDDVEEFRPERFENPSAIPQHAFKPFGNGQRACIGQQFALHEATLVLGMMLKHFDFEDHTNYELDIKETLTLKPEAFVVKAKSKKIPLGGIPSPSTGQSAKKVRKKAENAHNTPLLVLYGSNMGTAEGTARDLADIAMSKGFAPQVATLDSHAGNLPREGAVLIVTASYNGHPPDNAKQFVDWLDQASADEVKGVRYSVFGCGDKNWATTYQKVPAFIDETLAAKGAENIADRGEADASDDFEGTYEEWREHMWSDVAAYFNLDIENSEDNKSTLSLQFVDSAADMPLAKMHGAFSTNVVASKELQQPGSARSTRHLEIELPKEASYQEGGHLGVIPRNYEGTVNRVTARFGLDASQQIRLEAEEEKLAHLPLAKTVSVEELLQYVELQDPVTRTQLRAMAAKTVCPPHKVELEALLEKQAYKEQVLAKRLTMLELLEKYPACEMKFSEFIALLPSIRPRYYSISSSPRVDEKQASITVSVVSGEAWSGYGEYKGIASNYLAELQEGDTITCFISTPQSEFTLPKDPETPLIMVGPGTGVAPFRGFVQARKQLKEQGQSLGEAHLYFGCRSPHEDYLYQEELENAQSEGIITLHTAFSRMPNQPKTYVQHVMEQDGKKLIELLDQGAHFYICGDGSQMAPAVEATLMKSYADVHQVSEADARLWLQQLEEKGRYAKDVWAG
modifications: Mutant P450PMO protein sequence
notes: 7-7 plus G443A and D698G; propane monooxygenase
B3: in data set [5], the “coupling efficiency for propane hydroxylation” value is 90%.

The values are drawn from patent US12258605B2, “Alkane oxidation by modified hydroxylases” (The California Institute of Technology, priority 2005, dated 2025).
